Data as given in the RNAGym collection of RNA variant scans (doi:10.1073/pnas.2313332121).
Variants at the floor of the assay were thinned out.

B1: TPR 5TU (parent)
chain: GGAUCUUCUCGAUCUAACAAAAAAGACAAAUCUGCCACAAAGCUUGAGAGCAUCUUCGGAUGCAGAGGCGGCAGCCUUCGGUGGCGCGAUAGCGCCAACGUUCUCAACUAUGACACGCAAAACGCGUGCUCCGUUGAAUGGAGUUUAUCAUG

Variants of: B1
Test: polymerase ribozyme fitness, log enrichment relative to wild type (log ratio); higher = more active; in vitro selection for triplet polymerase activity
Procedure, shortened: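 In triplicate, a single round of in vitro selection was run on each mutant library, PCR-built and transcribed, covering one subunit of a heterodimeric triplet polymerase ribozyme. Frozen incubation at −7 °C followed annealing with a biotinylated primer, partner subunit and triplets, and extended constructs were then gel-excised, streptavidin-captured and taken through RT-PCR. Fitness is the logarithm of genotype enrichment over wild-type enrichment, from inverse-variance-weighted replicate averages of Illumina-sequenced inputs and outputs. […] only genotypes with ≥10 input reads and ≥1 read per output were kept.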

| Variant | polymerase ribozyme fitness (log ratio) |
| --- | --- |
| A115C A142G A150U | -3.13 |
| A41C A107C G133A U144G | ≤ -4.2 |
| G50U C57U G84U C103U | -2.21 |
| U13G C35A G50A C54A C76G C87G A89U A107C G141C | ≤ -4.2 |
| U13A C85U A107U C125A G126C | ≤ -4.2 |
| U6G U134C | -0.128 |
| A20U U45A G48U A64G A137U | ≤ -4.2 |
| C38A U53A C63U G80A C95A | ≤ -4.2 |
| G48U G65A C95U C105U C129G C132U | ≤ -4.2 |
| C54A G94U G140A | ≤ -4.2 |
| A12C A26C G92C | -3.66 |
| U61A G94A | -2.08 |
| C8U C54U U56C C85A G92C | ≤ -4.2 |
| C51U C85U C96G A119C G141A | -2.65 |
| C118G A119U G141U | -0.349 |
| A29U C63U C114U | ≤ -4.2 |
| C51U C72U G92C A98G U127G A138C G140A | ≤ -4.2 |
| U13G C85U C99U G128C C132U | ≤ -4.2 |
| U15C A37U C118U | -0.404 |
| C54U C79U G92U C95U G141C | -3.77 |
| G25A U33A G83C A91U G94A A121U C131U | ≤ -4.2 |
| G48A G133U | -3.81 |
| A30G G141C | -3.51 |
| C95A | 0.441 |

| Variant | polymerase ribozyme fitness (log ratio) |
| --- | --- |
| C14G A24U A28U C43U A73G U82C C103G G136A U146C | ≤ -4.2 |
| U9A C32G C54A G86C U109G G136A | ≤ -4.2 |
| A52C G84U | -2.64 |
| U77G C103G | ≤ -4.2 |
| U55G G62A G92U C96A | -3.44 |
| C35U A52G A60C A121U | -3.29 |
| C14A A66U G68A C72G G92U | ≤ -4.2 |
| C27U U55A U56A | -2.25 |
| C35A C108G C116A A142U | ≤ -4.2 |
| U9C C14G | ≤ -4.2 |
| U56A A64U | -4.19 |
| A121U C132U U146A | -0.968 |
| U4C C8A A39G U55A G88U C93U U102G | ≤ -4.2 |
| A20C C85A G126C U144A | -0.594 |
| C8A A41G | -4.12 |
| G59U A120U A122U | -0.451 |
| A37G U78A C93G C116U | ≤ -4.2 |
| A41G G94U C114U A150G | -3.98 |
| C36A U78C G80U C149U | ≤ -4.2 |
| C93U C116U | -0.9 |
| G81U C85A C95A | -1.06 |
| G48A C51U | -1.05 |
| A49C A52C C54A G74U C76G C125U | ≤ -4.2 |
| A49C C69A C79U G83U G94U U104A | ≤ -4.2 |

| Variant | polymerase ribozyme fitness (log ratio) |
| --- | --- |
| C54U C93U C96G U135A | -3.57 |
| A52G G83U U101A A115U | -3.39 |
| A26U C72G G81A G86C | ≤ -4.2 |
| C87G G112U | ≤ -4.2 |
| A49C C51U A52C G62A G70A G84A A106G A115G | ≤ -4.2 |
| U55A A106U A107U | -4.11 |
| A28G G42C C43A U55A | ≤ -4.2 |
| C8U C38U A49G C79G C93A C103G G136U | ≤ -4.2 |
| C8G A24U A29G C54G C57U G94A A98G U135G | ≤ -4.2 |
| A40C G48C U56G | -1.94 |
| A19U C57U C103G A119G C123A | -3.45 |
| C27A G59A C85U U134A | ≤ -4.2 |
| G92A A120G A121C U148C | -4.16 |
| C27A G86A G94A U102G C132U G133U U134A | ≤ -4.2 |
| A40C G92C | -1.84 |
| C87A C123A A150U | -3.19 |
| G48C G70A G88U C96G | ≤ -4.2 |
| C36G G59U C105G | ≤ -4.2 |
| A3G U4G U15A C27U C38A C57G G92A A119U | ≤ -4.2 |
| A3C C8G C76U C87A A106U | ≤ -4.2 |
| C57G G67U G92C A106C | ≤ -4.2 |
| U61A C75U C125A G128A A142U A147G | ≤ -4.2 |
| A41C G80C | -4.11 |
| C5A U7G G88U C105G G136A A137U G152U | ≤ -4.2 |

| Variant | polymerase ribozyme fitness (log ratio) |
| --- | --- |
| A22G G88A C96U | ≤ -4.2 |
| C54U A91C | ≤ -4.2 |
| G84U C96A C103U A113U | ≤ -4.2 |
| U4C A26U C69U | -2.9 |
| U55A U134C | -0.296 |
| C27U G58A C96U C116U C118G U144G | -0.836 |
| C18A A21G U33G C36A G84A G141C U144A C149U | ≤ -4.2 |
| U56G C85G | -2.54 |
| U4C A16C U55A G74U C85U C87U C103U U146A A147C | ≤ -4.2 |
| C18G G80C | ≤ -4.2 |
| A28C C85A | ≤ -4.2 |
| C14G A26U G59C G86C G100A G136U U144A | ≤ -4.2 |
| C96A A142U | -1.24 |
| G42C U44G G88A A97C | ≤ -4.2 |
| A23G C79G | ≤ -4.2 |
| A21C A24U A40G U144A | -3.76 |
| A30U U55A | -2.96 |
| C5G G50C C85U | -3.69 |
| U31G A89C C95G C99A | ≤ -4.2 |
| U15G G88A | -4.08 |
| C14G A19C | -1.66 |
| U61C G81C C95G C123U A142G | ≤ -4.2 |
| C36G C54U G92A A110G G143A | ≤ -4.2 |
| A24U C36G U56A C57A G71U A91C A106C A110G A138G | ≤ -4.2 |

| Variant | polymerase ribozyme fitness (log ratio) |
| --- | --- |
| A17U C54A U90G C96A C118G | ≤ -4.2 |
| C5U C96U | 0.36 |
| U7G A19G | -2.47 |
| U4A A16U A17G A21U A24U G84A C114U A122U A142C | ≤ -4.2 |
| G42A U148C | ≤ -4.2 |
| A47C A60U G80U C93U | ≤ -4.2 |
| C27G C96U A106G | -4 |
| C38U C116G U148A | -3.89 |
| C54G C57A G74A A91C C95U C132A | ≤ -4.2 |
| G48A A49C U53A G100A | ≤ -4.2 |
| C51U A89G C99U A150G | -3.67 |
| C75A U135C | ≤ -4.2 |
| A16U C116A | -0.257 |
| G67C A97C C103G C125U C129U A142U G143C A150U | ≤ -4.2 |
| C32U C85U A89C A138C | ≤ -4.2 |
| U4C A22C G48U C93G A122C | -3.98 |
| C10A C54A | ≤ -4.2 |
| A3G A21C A60G C76A C85G | -0.977 |
| U4C C10U U56G A60U G92U | -3.76 |
| U6G A23U A73G C76A A98G C105G A113C A119G | ≤ -4.2 |
| A41U C75A C93U | ≤ -4.2 |
| A21C A30C A41C G59A C95U | ≤ -4.2 |
| G25U C96A A142G | -4.05 |
| U44G C75U A89G | ≤ -4.2 |

| Variant | polymerase ribozyme fitness (log ratio) |
| --- | --- |
| A29G A89U C96U A115C A121C G143U | ≤ -4.2 |
| G25C A49C C93G | ≤ -4.2 |
| A47C U53C C57A C72G A73C U78C C79U C96G C129A A150G | ≤ -4.2 |
| C38A U56G G136C U146C | -3.92 |
| U15C A24G C76U U145A | ≤ -4.2 |
| A20U U31C U109G | -0.957 |
| G58U G83A C85U | -0.262 |
| A16U C87A G100A | ≤ -4.2 |
| A12C U55G A97G C105U | -3.12 |
| A16C U31A C32A G92C A97C A98C C103A C116U C125U | ≤ -4.2 |
| C36U G59A U82G A97U | -1.3 |
| C72U G128U | -3.1 |
| G46C C96U A98U A106G | -0.573 |
| A26U C32G G86A C105U | ≤ -4.2 |
| U56A G71U U78G C85U G143U | ≤ -4.2 |
| G11U A40U G42C G84C G100U A107U U134G | ≤ -4.2 |
| G11A A39U A40C G100C | ≤ -4.2 |
| U33G U55A G70A G80C | ≤ -4.2 |
| G88C A115U G117U C131G U135G | ≤ -4.2 |
| G11U C38A G83U U135C C149G | ≤ -4.2 |
| A12U A17G C57A A98U | -0.729 |
| C79U C93U C95U | -4.08 |
| C38U U90G C95A | ≤ -4.2 |
| U55A G84A | -1.01 |

| Variant | polymerase ribozyme fitness (log ratio) |
| --- | --- |
| G42U U45C C72U C85G A98G A106C G117U | ≤ -4.2 |
| A16U G34U G71A G94A U102G U151A | ≤ -4.2 |
| U9A A73G | ≤ -4.2 |
| G50U U55A C96U | -0.864 |
| A17C A28U U44C A52U G94U A97G A142G | ≤ -4.2 |
| A52U C57A U135C | -3.88 |
| U61G C87A A150G | ≤ -4.2 |
| C27G A28C A41U A91G C93U | ≤ -4.2 |
| A16U C57A | -1.96 |
| A41C A91C C118A C125A A150U | ≤ -4.2 |
| A17G A52G C85G | -2.03 |
| A12U U144G | 0.918 |
| C35U U55G A91G A106G G141A | ≤ -4.2 |
| C18G A64C U82G A137G | ≤ -4.2 |
| U15G A98G A122C G124U | -1.76 |
| C32G A52U C99U A106G G124U C131A | ≤ -4.2 |
| C103G U135A | -2.27 |
| C35U A47C G80U C87U | -3.9 |
| A73U G100U U104A G126C | ≤ -4.2 |
| G140U U146G | -3.88 |
| A12G G74C | -3.9 |
| A16C G25C | -2.46 |
| A26C U82A C95A | -2 |
